B1: SMG5 (parent)
chain: QEKLQVLMAEGLLPAVKVFLDWLR

Variants of: B1
Assay: protein stability index of a GFP-peptide fusion (GPS, HEK-293T) (PSI 1-6); higher = more stable
Conditions: c terminus: a fixed tail appended
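Note: lentivirally expressed fusions sorted by FACS into six bins by GFP to DsRed ratio, PSI derived from sequencing read proportions per bin multiplied by bin number.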

Protein stability index: each site, then its substitutions
L13: C 2.25; A 2.36; D 1.98
A9: L 3.66; Y 1.98; F 1.78; T 1.42; S 2.19; M 1.81; I 1.82; R 4.4; E 2.95; H 2.41; N 3.04; D 1.76; W 1.78; V 1.58; P 2.41; C 2.63; Q 2.82; K 2.21
E10: L 1.93; R 1.95; W 1.65; V 1.76; Y 1.56; T 2.89; A 2.7; Q 2.35; I 1.4; C 2.58; F 1.86; M 1.85; D 1.44; S 2.61; P 2.12; H 3.21
V6: H 1.55; E 2.18; Q 2.02; K 2.16; D 1.96; C 2.14; Y 3.07; G 2.42; M 1.48; I 1.5; P 2; N 3.16; A 1.82; W 2.51; R 1.99
K3: T 1.48; F 1.53; R 3.73; S 1.79; H 1.96; Q 2.66; M 1.5; G 1.91; L 1.78; N 1.91; I 1.45; Y 2.15; V 2.02; W 1.48
G11: I 1.81; H 1.99; P 2.2; L 1.6; Y 2.29; N 1.52; A 2.28; F 1.84; Q 1.69; E 1.6; R 2.04; W 2.23; M 2.38; V 2.56; T 2.44; D 1.64; C 1.99; K 1.6; S 1.99
M8: N 2.57; Y 3.06; T 3.02; G 2.85; V 3.7; R 3.01; Q 2.85; S 1.31; F 1.36; L 2.48; W 2.3; C 2.26; H 4.3; A 2.54; K 2.8; I 1.9; D 1.8; E 2.44
L4: V 2.58; G 3.1; E 1.12; Y 4.02; F 2.71; T 3.18; R 2.69; W 2.18; H 2.2; D 3.26; I 1.91; M 2.32; S 2.75; C 3.13
L12: R 3.06; H 1.25; D 2.16; Y 2.32; Q 2.1; P 3.4; W 1.8; N 1.82; F 1.91; K 2.34; G 1.79; M 1.22; S 2.42; I 2.14; E 2.32; V 1.39; A 1.61; T 2.21
L7: P 2.26; K 2.49; A 2.4; W 3.24; D 1.94; S 1.67; Y 1.86; R 4.07; C 1.54; M 1.64; V 2.07; E 2; N 2.47; F 1.8
Q5: H 1.58; M 2.19; T 1.47; P 2.22; W 1.45; G 1.88; V 2.31; I 2.86; D 3.13; L 2.5; Y 1.8; C 2.11; K 2.45; S 2.8; A 2; E 4.03; F 1.46; N 1.67
